Reference: the Human Domainome abundance scans (Beltran et al. 2025)
± gives the uncertainty stated by the source.

B1: Homeobox protein cut-like 1, residues 548 to 629; numbered along this chain, P39880 (parent)
chain: GEEMDTAEIARQVKEQLIKHNIGQRIFGHYVLGLSQGSVSEILARPKPWNKLTVRGKEPFHKMKQFLSDEQNILALRSIQGR

Variants of: B1
Assay: abundance fitness (aPCA) (normalised: wild type 0, dead -1); higher = more abundant; growth selection in yeast, the domain comes from the species named
Settings: Homo sapiens
For I22M, the abundance fitness was -0.612 ± 0.058.
For I22Y, the abundance fitness was -0.916 ± 0.16.
L17N showed an abundance fitness of -0.696 ± 0.12.
L17H gave an abundance fitness of -0.939 ± 0.27.
In the case of L17C, the abundance fitness is reported as -0.493 ± 0.079.
Variant P48D has an abundance fitness of -0.267 ± 0.058.
P48C showed an abundance fitness of -0.268 ± 0.055.
Work on P48N yielded an abundance fitness of -0.446 ± 0.083.
G1K showed an abundance fitness of -0.035 ± 0.071.
With G1Q the abundance fitness was -0.051 ± 0.089.
In the case of G1S, the abundance fitness is reported as -0.004 ± 0.046.
Variant P46I has an abundance fitness of -0.26 ± 0.058.
For L74T, the abundance fitness was -0.087 ± 0.041.
Work on L74R yielded an abundance fitness of -0.041 ± 0.026.
For A75Y, the abundance fitness was -0.027 ± 0.05.
A75C gave an abundance fitness of -0.11 ± 0.049.
A75W gave an abundance fitness of 0.009 ± 0.033.
W49V showed an abundance fitness of -0.529 ± 0.14.
In the case of W49L, the abundance fitness is reported as -0.506 ± 0.23.
W49R gave an abundance fitness of -0.574 ± 0.16.
I26F showed an abundance fitness of -0.078 ± 0.076.
In the case of I26T, the abundance fitness is reported as 0.009 ± 0.037.
Variant I26S has an abundance fitness of -0.14 ± 0.033.
For I26R, the abundance fitness was -0.401 ± 0.027.
With I26N the abundance fitness was -0.261 ± 0.063.
In the case of I26V, the abundance fitness is reported as 0.034 ± 0.026.
For I26A, the abundance fitness was -0.056 ± 0.027.
Work on L76E yielded an abundance fitness of -0.758 ± 0.063.
In the case of L76A, the abundance fitness is reported as -0.638 ± 0.052.
Work on L76G yielded an abundance fitness of -0.806 ± 0.04.
With L76R the abundance fitness was -0.945 ± 0.057.
Variant L76K has an abundance fitness of -0.861 ± 0.12.
V13M gave an abundance fitness of -0.263 ± 0.054.
For G33A, the abundance fitness was -0.341 ± 0.032.
In the case of G33R, the abundance fitness is reported as -0.351 ± 0.026.
Work on G33F yielded an abundance fitness of -0.883 ± 0.28.
For G33I, the abundance fitness was -1.15 ± 0.26.
G33D showed an abundance fitness of -0.268 ± 0.049.
With G33T the abundance fitness was -0.798 ± 0.071.
In the case of G33W, the abundance fitness is reported as -0.969 ± 0.069.
K62G gave an abundance fitness of -0.729 ± 0.032.
Variant K62V has an abundance fitness of -0.307 ± 0.03.
For K62S, the abundance fitness was -0.443 ± 0.038.
Variant K62E has an abundance fitness of -0.506 ± 0.036.
With K14A the abundance fitness was -0.324 ± 0.16.
K14C gave an abundance fitness of -0.263 ± 0.14.
K14N showed an abundance fitness of -0.058 ± 0.23.
For Q24Y, the abundance fitness was -0.013 ± 0.072.
Variant Q24M has an abundance fitness of -0.032 ± 0.037.
In the case of N50W, the abundance fitness is reported as -0.151 ± 0.085.
Work on N50C yielded an abundance fitness of 0.064 ± 0.14.
N50S showed an abundance fitness of 0.073 ± 0.07.
In the case of N50E, the abundance fitness is reported as -0.071 ± 0.2.
With V31K the abundance fitness was -1.04 ± 0.096.
In the case of V31T, the abundance fitness is reported as -0.488 ± 0.045.
V31E gave an abundance fitness of -0.681 ± 0.04.
In the case of V31S, the abundance fitness is reported as -0.806 ± 0.059.
For V31N, the abundance fitness was -0.713 ± 0.099.
With E15L the abundance fitness was -0.03 ± 0.075.
In the case of E15A, the abundance fitness is reported as -0.023 ± 0.13.
E15C showed an abundance fitness of 0.094 ± 0.25.
With E15I the abundance fitness was -0.003 ± 0.24.
L52Y gave an abundance fitness of -0.602 ± 0.078.
For D69P, the abundance fitness was -0.75 ± 0.085.
D69K gave an abundance fitness of -0.108 ± 0.042.
For D69H, the abundance fitness was -0.182 ± 0.085.
For D69L, the abundance fitness was -0.318 ± 0.036.
D69Y gave an abundance fitness of -0.351 ± 0.071.
D69R showed an abundance fitness of -0.207 ± 0.027.
For R77M, the abundance fitness was -0.096 ± 0.042.
For R77K, the abundance fitness was 0.103 ± 0.043.
With R77P the abundance fitness was -0.419 ± 0.062.
Variant R77I has an abundance fitness of -0.116 ± 0.057.
In the case of R77D, the abundance fitness is reported as -0.292 ± 0.057.
With R82S the abundance fitness was 0.011 ± 0.046.
Variant R82L has an abundance fitness of -0.06 ± 0.047.
With R82D the abundance fitness was -0.092 ± 0.07.
Work on R82M yielded an abundance fitness of -0.047 ± 0.056.
S40T gave an abundance fitness of 0.055 ± 0.036.
Variant S40N has an abundance fitness of -0.018 ± 0.052.
For S40K, the abundance fitness was 0.032 ± 0.036.
Variant S40Y has an abundance fitness of -0.102 ± 0.058.
Variant S40A has an abundance fitness of 0.057 ± 0.026.
Variant S40P has an abundance fitness of -0.258 ± 0.048.
Variant E2P has an abundance fitness of -0.478 ± 0.052.
E2F showed an abundance fitness of -0.107 ± 0.086.
Work on E2W yielded an abundance fitness of -0.202 ± 0.036.
With E2A the abundance fitness was -0.121 ± 0.029.
In the case of E2G, the abundance fitness is reported as -0.145 ± 0.026.
With E2T the abundance fitness was -0.117 ± 0.038.
Variant P59R has an abundance fitness of 0.023 ± 0.025.
P59W showed an abundance fitness of 0.077 ± 0.032.
With P59Q the abundance fitness was 0.078 ± 0.043.
For A7W, the abundance fitness was -0.143 ± 0.029.
In the case of A7D, the abundance fitness is reported as -0.136 ± 0.049.
In the case of A7Y, the abundance fitness is reported as -0.093 ± 0.052.
A7M showed an abundance fitness of -0.107 ± 0.039.
In the case of A7F, the abundance fitness is reported as -0.053 ± 0.059.
For R11M, the abundance fitness was -0.112 ± 0.057.
Variant R11W has an abundance fitness of -0.506 ± 0.081.
Work on R11P yielded an abundance fitness of -0.646 ± 0.13.
With R11G the abundance fitness was -0.18 ± 0.047.
For R55H, the abundance fitness was 0.077 ± 0.058.
For R55T, the abundance fitness was 0.007 ± 0.033.
M4G showed an abundance fitness of -0.523 ± 0.031.
With M4S the abundance fitness was -0.355 ± 0.035.
For M4H, the abundance fitness was -0.304 ± 0.069.
For M4C, the abundance fitness was -0.677 ± 0.1.
With G23R the abundance fitness was -0.068 ± 0.023.
Variant G23V has an abundance fitness of -0.196 ± 0.027.
G23P showed an abundance fitness of 0.08 ± 0.035.
Work on G23N yielded an abundance fitness of 0.105 ± 0.056.
Variant E41Q has an abundance fitness of -0.204 ± 0.04.
E41K showed an abundance fitness of -0.727 ± 0.074.
With E41C the abundance fitness was -0.219 ± 0.045.
With E41L the abundance fitness was -0.345 ± 0.037.
E41S showed an abundance fitness of -0.265 ± 0.034.
Work on E41D yielded an abundance fitness of -0.061 ± 0.047.
With V54A the abundance fitness was 0.066 ± 0.032.
With V54F the abundance fitness was -0.094 ± 0.051.
Work on V54P yielded an abundance fitness of 0.036 ± 0.046.
With V54G the abundance fitness was -0.04 ± 0.042.
Variant V54K has an abundance fitness of 0.058 ± 0.057.
Variant V54T has an abundance fitness of 0.03 ± 0.038.
L43P gave an abundance fitness of -0.926 ± 0.073.
L43I showed an abundance fitness of -0.534 ± 0.1.
Variant L43T has an abundance fitness of -0.922 ± 0.1.
Variant L43H has an abundance fitness of -1.04 ± 0.19.
Work on L43Q yielded an abundance fitness of -0.807 ± 0.069.
Variant L43C has an abundance fitness of -0.843 ± 0.1.
Variant F66H has an abundance fitness of -0.966 ± 0.14.
With F66Q the abundance fitness was -0.791 ± 0.063.
Variant F66W has an abundance fitness of 0.116 ± 0.029.
For F66R, the abundance fitness was -1.04 ± 0.049.
Work on H61K yielded an abundance fitness of 0.013 ± 0.035.
Variant H61L has an abundance fitness of 0.071 ± 0.032.
Work on H61N yielded an abundance fitness of -0.11 ± 0.056.
Variant H61R has an abundance fitness of 0.014 ± 0.023.
H61E showed an abundance fitness of 0.021 ± 0.028.
With L32T the abundance fitness was -0.741 ± 0.057.
With L32D the abundance fitness was -0.773 ± 0.083.
With K57F the abundance fitness was -0.742 ± 0.18.
In the case of K57N, the abundance fitness is reported as -0.601 ± 0.095.
Work on K57Y yielded an abundance fitness of -0.528 ± 0.1.
In the case of S78H, the abundance fitness is reported as -0.053 ± 0.061.
For S78W, the abundance fitness was -0.201 ± 0.036.
S78G gave an abundance fitness of 0.003 ± 0.025.
For L34S, the abundance fitness was -0.349 ± 0.04.
In the case of L34I, the abundance fitness is reported as -0.052 ± 0.062.
L34V gave an abundance fitness of -0.151 ± 0.028.
For I9V, the abundance fitness was -0.103 ± 0.028.
Variant I9A has an abundance fitness of -0.695 ± 0.046.
Work on I9G yielded an abundance fitness of -0.623 ± 0.03.
E3Y showed an abundance fitness of -0.091 ± 0.063.
With E3M the abundance fitness was -0.101 ± 0.039.
Variant E3Q has an abundance fitness of -0.089 ± 0.04.
Variant E3V has an abundance fitness of -0.098 ± 0.028.
E3C gave an abundance fitness of -0.142 ± 0.046.
Work on E3K yielded an abundance fitness of -0.064 ± 0.035.
Work on G56L yielded an abundance fitness of -0.098 ± 0.031.
In the case of G56M, the abundance fitness is reported as -0.143 ± 0.039.
In the case of Q65V, the abundance fitness is reported as -0.117 ± 0.026.
Q65W showed an abundance fitness of -0.201 ± 0.034.
Work on I73C yielded an abundance fitness of -0.129 ± 0.059.
Variant I73F has an abundance fitness of -0.026 ± 0.06.
With I73P the abundance fitness was -0.303 ± 0.048.
I73E gave an abundance fitness of -0.637 ± 0.048.
